Measured values published in PMC12276362 (Nature Communications, 2025).

Target: rhAMPK protein (AMPKα2, Abiocenter Biotechnology) (human (printed only as the prefix rh), UniProt P54646 1-552)
Experiment: BLI

Sequence of rhAMPK protein (AMPKα2, Abiocenter Biotechnology) (P54646 whole entry): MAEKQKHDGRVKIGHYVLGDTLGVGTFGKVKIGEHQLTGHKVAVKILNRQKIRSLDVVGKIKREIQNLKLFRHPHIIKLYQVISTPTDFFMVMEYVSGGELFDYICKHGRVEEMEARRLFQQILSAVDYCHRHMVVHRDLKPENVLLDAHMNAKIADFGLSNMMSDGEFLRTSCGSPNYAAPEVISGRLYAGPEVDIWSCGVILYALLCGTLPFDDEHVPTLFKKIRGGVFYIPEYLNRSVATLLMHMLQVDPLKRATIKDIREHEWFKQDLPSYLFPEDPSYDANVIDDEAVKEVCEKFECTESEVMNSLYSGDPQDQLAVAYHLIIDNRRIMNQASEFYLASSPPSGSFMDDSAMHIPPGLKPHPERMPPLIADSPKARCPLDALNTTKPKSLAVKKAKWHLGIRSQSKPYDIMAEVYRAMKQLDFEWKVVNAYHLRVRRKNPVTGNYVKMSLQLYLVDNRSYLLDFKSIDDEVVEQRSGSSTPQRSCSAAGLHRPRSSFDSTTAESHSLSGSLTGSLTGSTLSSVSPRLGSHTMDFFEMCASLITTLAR

B1: rhOTUD1 protein (enzyme, human (printed only as the prefix rh), UniProt Q5VV17 1-481, looked up)
chain: MQLYSSVCTHYPAGAPGPTAAAPAPPAAATPFKVSLQPPGAAGAAPEPETGECQPAAAAEHREAAAVPAAKMPAFSSCFEVVSGAAAPASAAAGPPGASCKPPLPPHYTSTAQITVRALGADRLLLHGPDPVPGAAGSAAAPRGRCLLLAPAPAAPVPPRRGSSAWLLEELLRPDCPEPAGLDATREGPDRNFRLSEHRQALAAAKHRGPAATPGSPDPGPGPWGEEHLAERGPRGWERGGDRCDAPGGDAARRPDPEAEAPPAGSIEAAPSSAAEPVIVSRSDPRDEKLALYLAEVEKQDKYLRQRNKYRFHIIPDGNCLYRAVSKTVYGDQSLHRELREQTVHYIADHLDHFSPLIEGDVGEFIIAAAQDGAWAGYPELLAMGQMLNVNIHLTTGGRLESPTVSTMIHYLGPEDSLRPSIWLSWLSNGHYDAVFDHSYPNPEYDNWCKQTQVQRKRDEELAKSMAISLSKMYIEQNACS
modifications: biotin (EZ-Link Sulfo-NHS-LC-Biotinylation Kit)
Q: With B1 as the binder, how does the Kd read?
A: 55.6 nM
